From the supplement of paper PMC10567573 come the findings set out here.

B1: PLK2 (parent)
chain: MELLRTITYQPAASTKMCEQALGK
B2: DLC1 (parent)
chain: KRSWEEHVTHWMGQPFNSDDRNTA
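Further: lentivirally expressed fusions sorted by FACS into six bins by GFP to DsRed ratio, PSI derived from sequencing read proportions per bin multiplied by bin number.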

The variants in the first data set derive from B1. In words: protein stability index of a GFP-peptide fusion (GPS, HEK-293T) (PSI 1-6); higher = more stable. The note with it: c terminus: a fixed tail appended.
As to MELLRTITYQPAASTKMCEQALGD, the protein stability index is 2.73.
The same measure, in the same setting: for MELLRTITYQPAASTKMCEQALGG the value was 1.65.
Take MELLRTITYQPAASTKMCEQALGC: the protein stability index was found to be 2.46.
On the same count and under the same terms, in the case of MELLRTITYQPAASTKMCEQALGV it was 2.86.
On the same count and under the same terms, for MELLRTITYQPAASTKMCEQALGI the value was 3.23; for MELLRTITYQPAASTKMCEQALGA, 2.89.
Still for that read-out and setting: in the case of MELLRTITYQPAASTKMCEQALGS it was 2.47; in that of MELLRTITYQPAASTKMCEQALGQ, 1.89; in that of MELLRTITYQPAASTKMCEQALGF, 3.31.
Take MELLRTITYQPAASTKMCEQALGL: the protein stability index was 3.19.
On the same count and under the same terms, in the case of MELLRTITYQPAASTKMCEQALGT it was 2.21; in that of MELLRTITYQPAASTKMCEQALGP, 2.65.
The same measure, in the same setting: for MELLRTITYQPAASTKMCEQALGM the value was 3.29.
On the same count and under the same terms, for MELLRTITYQPAASTKMCEQALGN the value was 2.59.
For the variant MELLRTITYQPAASTKMCEQALGH, the protein stability index amounted to 3.08.
On to MELLRTITYQPAASTKMCEQALGW, for which the protein stability index was 3.92.
Consider MELLRTITYQPAASTKMCEQALGY, for which the protein stability index is 3.96.
MELLRTITYQPAASTKMCEQALGR: the protein stability index stood at 1.98.
On the same count and under the same terms, for MELLRTITYQPAASTKMCEQALGE the value was 1.41; for MELLRTITYQPAASTKMCEQALSK, 3.38; for MELLRTITYQPAASTKMCEQALYK, 1.9.
Same read-out and setting: in the case of MELLRTITYQPAASTKMCEQALRK it was 1.34; in that of MELLRTITYQPAASTKMCEQALIK, 1.97.
Still for that read-out and setting: for MELLRTITYQPAASTKMCEQALPK the value was 2.27; for MELLRTITYQPAASTKMCEQALNK, 2.37; for MELLRTITYQPAASTKMCEQALVK, 1.97.
As to MELLRTITYQPAASTKMCEQALMK, the protein stability index was 2.28.
On the same count and under the same terms, in the case of MELLRTITYQPAASTKMCEQALWK it was 3.02.
Still for that read-out and setting: in the case of MELLRTITYQPAASTKMCEQALQK it was 1.87; in that of MELLRTITYQPAASTKMCEQALTK, 1.46.
The same measure, in the same setting: for MELLRTITYQPAASTKMCEQALKK the value was 2.94; for MELLRTITYQPAASTKMCEQALLK, 3.53.

Variants of B2 are the subject of another data set. Described as above. The note with it: c terminus: a fixed tail appended.
Regarding GRSWEEHVTHWMGQPFNSDDRNTA, the protein stability index came out at 3.21.
On the same count and under the same terms, in the case of MRSWEEHVTHWMGQPFNSDDRNTA it was 2.73; in that of LRSWEEHVTHWMGQPFNSDDRNTA, 3.03.
The same measure, in the same setting: for FRSWEEHVTHWMGQPFNSDDRNTA the value was 3.16; for IRSWEEHVTHWMGQPFNSDDRNTA, 2.54; for ARSWEEHVTHWMGQPFNSDDRNTA, 3.57.
On the same count and under the same terms, for DRSWEEHVTHWMGQPFNSDDRNTA the value was 4.26; for PRSWEEHVTHWMGQPFNSDDRNTA, 3.6; for RRSWEEHVTHWMGQPFNSDDRNTA, 2.99.
As to TRSWEEHVTHWMGQPFNSDDRNTA, the protein stability index was 3.35.
On the same count and under the same terms, in the case of QRSWEEHVTHWMGQPFNSDDRNTA it was 3.76.
Same read-out and setting: in the case of ERSWEEHVTHWMGQPFNSDDRNTA it was 4.15; in that of NRSWEEHVTHWMGQPFNSDDRNTA, 3.63.
Same read-out and setting: for HRSWEEHVTHWMGQPFNSDDRNTA the value was 2.69; for VRSWEEHVTHWMGQPFNSDDRNTA, 2.95; for CRSWEEHVTHWMGQPFNSDDRNTA, 2.54.
Take SRSWEEHVTHWMGQPFNSDDRNTA: the protein stability index worked out at 3.46.
Consider WRSWEEHVTHWMGQPFNSDDRNTA, for which the protein stability index was 2.49.
Same read-out and setting: for YRSWEEHVTHWMGQPFNSDDRNTA the value was 2.81; for KRSWEIHVTHWMGQPFNSDDRNTA, 2.44.
As for KRSWEVHVTHWMGQPFNSDDRNTA, the protein stability index turned out to be 2.53.
In the case of KRSWEGHVTHWMGQPFNSDDRNTA, the protein stability index turned out to be 3.48.
On the same count and under the same terms, in the case of KRSWEPHVTHWMGQPFNSDDRNTA it was 3.46; in that of KRSWECHVTHWMGQPFNSDDRNTA, 2.87; in that of KRSWEWHVTHWMGQPFNSDDRNTA, 2.67.
Still for that read-out and setting: in the case of KRSWEMHVTHWMGQPFNSDDRNTA it was 2.66.
On the same count and under the same terms, in the case of KRSWENHVTHWMGQPFNSDDRNTA it was 3.98; in that of KRSWERHVTHWMGQPFNSDDRNTA, 3.46; in that of KRSWEDHVTHWMGQPFNSDDRNTA, 3.06.
Regarding KRSWEYHVTHWMGQPFNSDDRNTA, the protein stability index worked out at 2.31.
The same measure, in the same setting: for KRSWESHVTHWMGQPFNSDDRNTA the value was 3.24.
Same read-out and setting: in the case of KRSWEKHVTHWMGQPFNSDDRNTA it was 3.32.
The same measure, in the same setting: in the case of KRSWEQHVTHWMGQPFNSDDRNTA it was 3.27; in that of KRSWEAHVTHWMGQPFNSDDRNTA, 2.72.
For KRSWETHVTHWMGQPFNSDDRNTA, the protein stability index worked out at 3.15.
Same read-out and setting: in the case of KRSWEFHVTHWMGQPFNSDDRNTA it was 2.27; in that of KRSWELHVTHWMGQPFNSDDRNTA, 2.58.
On the same count and under the same terms, in the case of KRSWEHHVTHWMGQPFNSDDRNTA it was 3.36.
The same measure, in the same setting: in the case of KRSWNEHVTHWMGQPFNSDDRNTA it was 3.5.
Take KRSWPEHVTHWMGQPFNSDDRNTA: the protein stability index was 3.95.
Still for that read-out and setting: for KRSWIEHVTHWMGQPFNSDDRNTA the value was 1.92; for KRSWGEHVTHWMGQPFNSDDRNTA, 3.07.
Same read-out and setting: for KRSWDEHVTHWMGQPFNSDDRNTA the value was 3.94; for KRSWVEHVTHWMGQPFNSDDRNTA, 2.65; for KRSWQEHVTHWMGQPFNSDDRNTA, 3.1.
Still for that read-out and setting: in the case of KRSWLEHVTHWMGQPFNSDDRNTA it was 2.47; in that of KRSWYEHVTHWMGQPFNSDDRNTA, 3.04; in that of KRSWREHVTHWMGQPFNSDDRNTA, 2.64.
Take KRSWAEHVTHWMGQPFNSDDRNTA: the protein stability index is 2.55.
As for KRSWTEHVTHWMGQPFNSDDRNTA, the protein stability index is 2.4.
On the same count and under the same terms, in the case of KRSWMEHVTHWMGQPFNSDDRNTA it was 3.13; in that of KRSWWEHVTHWMGQPFNSDDRNTA, 3.37.
Regarding KRSWKEHVTHWMGQPFNSDDRNTA, the protein stability index came out at 2.58.
Same read-out and setting: for KRSWSEHVTHWMGQPFNSDDRNTA the value was 3.41; for KRSWCEHVTHWMGQPFNSDDRNTA, 2.17.
Same read-out and setting: in the case of KRSWFEHVTHWMGQPFNSDDRNTA it was 3.16; in that of KRSWHEHVTHWMGQPFNSDDRNTA, 3.56.
Same read-out and setting: for KRSWEEQVTHWMGQPFNSDDRNTA the value was 2.75; for KRSWEESVTHWMGQPFNSDDRNTA, 3.71; for KRSWEEPVTHWMGQPFNSDDRNTA, 4.2.
For the variant KRSWEEDVTHWMGQPFNSDDRNTA, the protein stability index came out at 3.68.
On the same count and under the same terms, for KRSWEETVTHWMGQPFNSDDRNTA the value was 3.21.
